pKi: −log10 of the molar value.
Target: bact sCRFR2α (mouse soluble CRF receptor type 2α, amino acids 20-143, purified from E. coli) (mouse)
Assay: radioreceptor assay, displacement of [125I-DTyr0]-astressin from purified sCRFR2α

pKi: 8.00
Substance: Astressin (peptide)
